B1: 375-max (antibody, V domains shown)
VH: EVQLVESGGGLVQPGGSLRLSCKASGFSFTTTDYMCWVRQAPGKGLEWVGCILAGDGSTYYANWAKGRFTGSKDTSKNTVYLQMNSLRAEDTAVYYCARSDPASSWSFALWGQGTLVTVSS
VL: EIVMTQSPSTLSASVGDRVIITCQASENINIWLSWYQQKPGKAPKLLIYQASKLASGVPSRFSGSGSGTQFTLTISSLQPDDFATYYCQNNYSYNRYGAPFGQGTKLTVLG
B2: 534-min C-His (antibody, V domains shown)
VH: EVQLVESGGGLVQPGGSLRLSCAASGFSLSYYYMSWVRQAPGKGLEWVSIIGPGDYTDYASWAKGRFTISRDNSKNTLYLQMNSLRAEDTAVYYCAKGDDNSGWGEDIWGQGTLVTVSS
VL: EIVMTQSPSTLSASVGDRVIITCQASQSINIWLSWYQQKPGKAPKLLIYKESTLASGVPSRFSGSGSGAEFTLTISSLQPDDFATYYCQNNYDSGNNGFPFGQGTKLTVLG
B3: 534-max (antibody, V domains shown)
VH: B2 VH with A23T, S49G, R71K, N73T, L78V, K97R
VL: B2 VL with A69T
B4: 435-max (antibody, V domains shown)
VH: EVQLVESGGGLVQPGGSLRLSCKVSGFSLNTNYWMCWVRQAPGKGLEWVGCMYTGSYNRAYYASWAKGRFTSSKDTSKNTVYLQMNSLRAEDTAVYYCAKGSNWYSDLWGQGTLVTVSS
VL: EIVMTQSPSTLSASVGDRVIIKCQASQSIGSSLAWYQQKPGKAPKLLIYTAANLASGVPSRFSGSGSGAEFTLTISSLQPDDFATYYCQNFATSDTVTFGQGTKLTVLG
B5: 578 wildtype C-His (798) (antibody, V domains shown)
VH: QSVEESGGRLVTPGTPLTLTCTASGFSLTDYYYMTWVRLAPGKGLEYIGFIDPDDDPYYATWAKGRFTISRTSTTVNLKMTSPTTEDTATYFCAGGDHNSGWGLDIWGPGTLVTVSL
VL: DVVMTQTPSSVSAAVGDTVTINCQASEIIHSWLAWYQQKPGQPPKLLIYLASTLASGVPSRFKGSGSGTQFTLTISDLECADAAIYYCQNVYLASTNGANFGGGTEVVVK
B6: 578-max FW1.4_DHP (960) (antibody, V domains shown)
VH: EVQLVESGGGSVQPGGSLRLSCTASGFSLTDYYYMTWVRQAPGKGLEWVGFIDPDDDPYYATWAKGRFTISRDTSKNTVYLQMNSLRAEDTATYYCAGGDHNSGWGLDIWGQGTTVTVSS
VL: EIVMTQSPSTLSASVGDRVIITCQASEIIHSWLAWYQQKPGKAPKLLIYLASTLASGVPSRFSGSGSGTQFTLTISSLQPDDFATYYCQNVYLASTNGANFGQGTKLTVLG
B7: 578min_max V89A (978) (antibody, V domains shown)
VH: B6 VH with S11L, V79A, T93V, T115L
VL: B6 VL with T69A, Q70E
B8: 578min_max T84N_V89A (1009) (antibody, V domains shown)
VH: B6 VH with S11L, T74N, V79A, T93V, T115L
VL: B6 VL with T69A, Q70E
B9: 578-max-min (902) (antibody, V domains shown)
VH: B6 VH with S11L, T23A, G50S, T74N, V79L, T93V, G98K, T115L
VL: B6 VL
B10: 578min_max V89L (980) (antibody, V domains shown)
VH: B6 VH with S11L, V79L, T93V, T115L
VL: B6 VL with T69A, Q70E

Substitutions are numbered along the chain they refer to. Names and notes keep the numbering of the source.

For the first experiment, the target named is T1, human VEGF165 (human, UniProt P15692).
T1 chain: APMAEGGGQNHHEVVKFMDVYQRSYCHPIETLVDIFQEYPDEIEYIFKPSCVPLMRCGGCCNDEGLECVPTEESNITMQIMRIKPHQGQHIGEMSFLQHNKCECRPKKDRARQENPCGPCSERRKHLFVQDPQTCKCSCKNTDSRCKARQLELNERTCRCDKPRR
In words: SPR, pH 5.
Molecule B1 displayed a Kd of 2.68 nM.

As for B2, the affinity, expressed as Kd, was 34.1 nM.

Take B3: binding was put at a Kd of 9.21 nM.

In turn, B4 yielded a Kd of 4.53 nM.

The next experiment concerns the target T1, human VEGF165. In words: SPR, pH 7.4.
Turning to B1, the Kd stood at 4.74 nM.

As for B3, the affinity, expressed as Kd, was 2.47 nM.

B4 registered a Kd of 0.0922 nM.

The next experiment concerns the target T1, human VEGF165. In words: SPR, pH 5. This is another data set of the same source.
Molecule B5 yielded a dissociation constant Kd of 0.2 nM.

Consider B6, for which the Kd came to 0.266 nM.

Molecule B7 registered a Kd of 1.2 nM.

As for B8, the Kd was found to be 0.615 nM.

As to B9, binding was put at a Kd of 6.55 nM.

On to B10, for which the Kd was determined as 2.13 nM.

These data come from patent publication US10590193 (dated 2020).
